Data taken from the supplement of paper PMC9170038.

System: MS2 coat protein
Experiment: apparent KD of MS2 coat protein; designed switch direction (-1 OFF switch, 1 ON switch): -1; higher = weaker reporter binding
Procedure, shortened: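 The buffer was Tris-HCl pH 7.5 with KCl, MgCl2, BSA, DTT, tRNA and Tween-20. In it, SNAP-549-labelled MS2 coat protein was titrated in doubling steps from 0.7 or 1.5 nM to 3 µM over chip-bound RNA switches transcribed by stalled E. coli RNA polymerase on Illumina chips. Apparent KD is the per-design median over clusters of curve fits to normalised fluorescence.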

[1] = Eterna round: R95, input ligand: FMN 200 uM
[2] = Eterna round: R95, input ligand: microRNA oligo, concentration not stated
[3] = Eterna round: R95, input ligand: none
[4] = input ligand: microRNA oligo, concentration not stated

Sequence | apparent KD of MS2 coat protein [2] [nM] | apparent KD of MS2 coat protein (input ligand: FMN 200 uM) [nM] | apparent KD of MS2 coat protein (input ligand: none) [nM] | apparent KD of MS2 coat protein [4] [nM] | other results
AUGUGGGUACGAAGGUGUAGAUUGAGCGUACGUUCUGGAACAUGAGGAUCACCCAUGUCGCUUUUUGCUCGUCUUAU [JR_SV3TOV2_Sub035] (puzzle: Sensor v3, turn-off variant 2) | 47.8 |  |  |  | apparent KD of MS2 coat protein [1]: 25.1 nM; apparent KD of MS2 coat protein [3]: 24.1 nM
AUGUUACAUGAGGAUCACCCAUGUGAGGAUAUGAGUCAGUCACGGUGACGUGGCUGACUCAGAAGGCACAAAGG [JL-ex1-4.38 salish99 mod] (Eterna round: R97, puzzle: Exclusion 1) |  | 754 | 180 |  | 
AUGUUACUCUGAGGAUAUUGUUUAUUCUUCUCACAUGAGGAUCACCCAUGUUUCCAUGUUAACCGCAAGAAGGCAGUAUUGAUU [JR_ExcNG2_Sub030] (Eterna round: R96, puzzle: Exclusion NG 2) |  | 76.1 | 55.1 | 49.1 | 
AUUAAACAUGUAGGAUAUGCGUGGCGAAGCUAUGCAGAAGGACAUGAGGAUCACCCAUGUAAGAGCGUCUGCGUACAGAUGCAA [Mat - Exclusion NG 1 - Mod of JL - D85] (Eterna round: R96, puzzle: Exclusion NG 1) |  | 563 | 61.5 | 36.6 | 
AUUAAAGACCGAGGAUAUCGAGGAAAUACCCUGCGAGAAGGCGGGUACUCGGACGAUUCGACAUGAGGAUCACCCAUGUGCACA [Atrivece] (Eterna round: R96, puzzle: Exclusion NG 1) |  | 26.6 | 25.9 | 24.5 | 
AUUAGCGUAGGAUAUUGAUACAUGUACAUGAGGAUCACCCAUGUGAGGUGAGUCUUCGAUUAAGAAGGGCGCAGAA [EX5 #39] (Eterna round: R97, puzzle: Exclusion 5) |  | 82.6 | 1210 |  | 
AUUAUAAAGUCAGGAUAUCGGUUUAUAAUAUUACGAGAAGGGACAUGAGGAUCACCCAUGUAUUAACACUACUAUGUCAACUAA [1st Attempt] (Eterna round: R96, puzzle: Exclusion NG 1) |  |  |  | 33.3 | 
AUUAUAAAUGUAGGAUAUCUGCACGUUUAGUGCAGAGAAGGACAUGAGGAUCACCCAUGUAGAUCAAUAAUAAUUAAUUUAAUU [ENG1/5-B2] (Eterna round: R96, puzzle: Exclusion NG 1) |  | 146 | 33.7 | 29.1 | 
AUUAUAACAUAGGAUAUCGAAUUUAUCAUUUAACGAGAAGGAUGAACAUGAGGAUCACCCAUGUGGUAUCAUGG [Mat - Exclusion 6 - JL Mod - D3] (puzzle: Exclusion 6) | 173 |  |  |  | apparent KD of MS2 coat protein [1]: 55 nM; apparent KD of MS2 coat protein [3]: 33.5 nM
AUUAUAUAGAUAGGAUAUUGAUUAUUAUUUUAACAUGAGGAUCACCCAUGUAGCCUUAUGUAUAACAAGAAGGAUCAUUUAUUA [Title] (Eterna round: R96, puzzle: Exclusion NG 2) |  |  |  | 137 | 
AUUAUAUAGGAAGGAUAUAGAAUAUUAUUUUAACAUGAGGAUCACCCAUGUAACCUUAUGUGUAGCUAGAAGGUCCAUUUGUUA [Title] (Eterna round: R96, puzzle: Exclusion NG 2) |  |  |  | 221 | 
AUUAUUUAAGUCAGGAUAUCGUAUUUAUUUAAAUACGAGAAGGGACAUGAGGAUCACCCAUGUAAUAAAUUUUU [JMFs Solution 3] (puzzle: Brourd's mod of Exclusion 4) | 17.2 |  |  |  | 
AUUCAACAUGAGGAUCACCCAUGUGAGGAUAUGCGAGUGUAGACUUCGGUUUGAUAGAGCAGAAGGCGCAGGUA [EX1 #12] (Eterna round: R97, puzzle: Exclusion 1) |  | 35.9 | 33.3 |  | 
AUUCAGCGAGGAUAUACAGGUUCUGGGUGAGGCUCGGCGAGACAUGAGGAUCACCCAUGUAGAAGGUGCUAGCC [Rezalaes] (puzzle: Exclusion 2) | 277 |  |  |  | 
AUUCUUCAUAUCACAUGAGGAUCACCCAUGUUAUUCAUCGCGUAGGAUAUCGAGAAUUUUAAAUACGAGAAGGACGAAUUGAUA [JR_ExcNG3_Sub071] (Eterna round: R96, puzzle: Exclusion NG 3) |  | 35.1 | 35.3 | 31.8 | 
AUUGAGCUAGGAUAUACAUGAGGAUCACCCAUGUAGCAAAAUAGCUAUACAUGAUCGGGUAGAAGGAGCGCGAG [Tirivela] (puzzle: Exclusion 3) | 14.3 |  |  |  | 
AUUGUGUGAGGAUAUUAGUAGUAAAUAAAUAAAAUUAUUACUGAGAAGGCACAUGAGGAUCACCCAUGUUCCUU [Salish 062 v5] (Eterna round: R97, puzzle: Exclusion 4) |  | 131 | 18.9 |  | 
AUUGUUUGAUACCUCUAAUACAUGAGGAUCACCCAUGUUAUCGAGGAUAUGCAGUAGAGUGGAGAGCAGAAGGCGAAGUAAGUG [JR_ExcNG3_Sub028] (Eterna round: R96, puzzle: Exclusion NG 3) |  | 27 | 13.7 | 14.4 | 

Sequence | apparent KD of MS2 coat protein [2] [nM] | apparent KD of MS2 coat protein (input ligand: FMN 200 uM) [nM] | apparent KD of MS2 coat protein (input ligand: none) [nM] | apparent KD of MS2 coat protein [4] [nM] | other results
AUUUAGAGAGGAUAUAUUAUGUGAAACAUGAGGAUCACCCAUGUAAUAUGAUGGAUGUAAAUAGAAGGCUCAUUUA [Mat - Exclusion 5 - JL mod - D23] (puzzle: Exclusion 5) | 43.5 |  |  |  | apparent KD of MS2 coat protein [1]: 32.9 nM; apparent KD of MS2 coat protein [3]: 56.4 nM
AUUUAGUCAGGAUAUUAGUAGUAAAUGAAUAAAAUUAUUACUGAGAAGGGACAUGAGGAUCACCCAUGUGUCUA [Mat - Exclusion 4 - Eli Mod - D8] (Eterna round: R97, puzzle: Exclusion 4) |  | 60 | 28.5 |  | 
AUUUGCACGCUGCGGUCCUACAUGAGGAUCACCCAUGUGGUCUGGUGGCGUGGGUCGCCGGACUUGGCUCGUCUUGG [salish99_S_TOV1_R5_034] (Eterna round: R97, puzzle: Sensor, turn-off variant 1) |  | 14.9 | 14.7 |  | 
AUUUUAAUAUAGGAUAUCGAAUUUAUUAUUUAACGAGAAGGAUAAACAUGAGGAUCACCCAUGUGGUAUCAUGG [JMFs Solution 2] (puzzle: Exclusion 6) | 113 |  |  |  | 
AUUUUGAAUGUAAGGAUAUCAAUACGAGGGCGUGAUGAGAAGGUACAUGAGGAUCACCCAUGUGGCGAGCUCAC [BmEX4 B.24] (Eterna round: R97, puzzle: Brourd's mod of Exclusion 4) |  | 33.5 | 23.7 |  | 
AUUUUGUCAGGAUAUGAGUAGUAGGACGAAAGUGUUAUUAUUUAGAAGGGACAUGAGGAUCACCCAUGUUUUCC [Bring Us a Shrubbery-04] (puzzle: Exclusion 4) | 12 |  |  |  | 
CAAAACUGAGGAUAUACAUGAGGAUCACCCAUGUCCAAGGUCCUGGGCGGAUGCUGCUGUAGAAGGCGGAAAGA [Diatsobi] (puzzle: Exclusion 3) | 21.8 |  |  |  | 
CAAAAGGGAGGAUAUACAUGAGGAUCACCCAUGUACGGUUCACGGGUAGGUGCGUAUAGUAGAAGGCCCGCAUA [Abiace] (Eterna round: R97, puzzle: Exclusion 3) |  | 172 | 83.4 |  | 
CAAACAAGCGAAAGAUCCCACAUGAGGAUCACCCAUGUGCUCGUCUUAUAAGGUACUGUGACGAAAGUCACGGUACC [Sensor 3, v1 - 91 v21] (Eterna round: R97, puzzle: Sensor, turn-off variant 1) |  | 38.4 | 45.3 |  | 
CAAACGGCUUUAGGAUAUGACUUUUCGUACAUGAGGAUCACCCAUGUCAGGACUGGUGGUGCGAGUCAGAAGGAGAGUCAAGAA [Eternabot solution 30] (Eterna round: R96, puzzle: Exclusion NG 2) |  | 94.3 | 176 | 99.2 | 
CAAAUUGCAGGAUAUACUGGGCCAGAGCCAUCGUGUAUUCCACAUGAGGAUCACCCAUGUAGAAGGGCACGUAC [Aqueran] (puzzle: Exclusion 2) | 23.8 |  |  |  | 
CAACAGGGAGGAUAUACAUGAGGAUCACCCAUGUUCGAGCGUCCUUGAACUACCUCUGGUAGAAGGCCCACACG [Bibiorbi] (Eterna round: R97, puzzle: Exclusion 3) |  | 147 | 56.9 |  | 
CAACCGAAUCAGUGAAUGCCGACAUGAGGAUCACCCAUGUGUGAGGAUAUUUUAGUAGAGAACUAAAAGAAGGCACCUGGAAAG [Eternabot solution 20] (Eterna round: R96, puzzle: Exclusion NG 3) |  | 70.2 | 39.8 | 22.4 | 
CAACUGCAUGUGAGGAUAUGCACCGGCCAAGCCGGGCAGAAGGCACAUGAGGAUCACCCAUGUCAUCCUAUUGC [Esusgeraon] (puzzle: Brourd's mod of Exclusion 4) | 12.4 |  |  |  | 
CAAGUGCCGGAAGGAUAUCAGCGAUGUCACGCUUGAGAAGGUCUGUGCACAUGAGGAUCACCCAUGUCCGCCAGACUCCUUAAC [Eternabot solution 21] (Eterna round: R96, puzzle: Exclusion NG 1) |  |  |  | 7.68 | 
CAAUAAAAGCGAGGAUAUCCGUAUAAAGAUACAGGAGAAGGUGCGGGUACUCCUCACAUGAGGAUCACCCAUGUAAGAAAUAAA [Erxeraso] (Eterna round: R96, puzzle: Exclusion NG 1) |  | 67.4 | 57.1 | 33.7 | 
CACAAGCUUUUUUGAUGCAUUUUAGUUGGUUGCCUUUUUACAUGAGGAUCACCCAUGUUUGUGUAGCUCGAUCUUUU [JR_SV3TOV2_Sub078] (puzzle: Sensor v3, turn-off variant 2) | 29 |  |  |  | apparent KD of MS2 coat protein [1]: 36.5 nM; apparent KD of MS2 coat protein [3]: 41.2 nM
